Here are results for 22 molecules from patent US20230295310A1 (ABCELLERA BIOLOGICS, published 2023).

The target in the test is human CD3 (human, UniProt P07766 23-207; P04234 22-171; P09693 23-182). Description: cell-based or functional assay.

Substitutions are numbered along the chain they refer to.

Chain of human CD3 (P07766 23-207, chain 1 of 3): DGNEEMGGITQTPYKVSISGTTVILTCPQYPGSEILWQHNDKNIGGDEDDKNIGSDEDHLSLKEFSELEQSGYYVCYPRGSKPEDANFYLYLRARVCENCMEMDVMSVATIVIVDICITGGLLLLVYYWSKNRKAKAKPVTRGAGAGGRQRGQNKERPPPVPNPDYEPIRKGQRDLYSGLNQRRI
Chain of human CD3 (P04234 22-171, chain 2 of 3): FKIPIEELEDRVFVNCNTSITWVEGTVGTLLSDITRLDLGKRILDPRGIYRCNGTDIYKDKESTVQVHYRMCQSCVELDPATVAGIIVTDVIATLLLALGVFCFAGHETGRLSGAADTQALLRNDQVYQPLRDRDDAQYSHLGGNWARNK
Chain of human CD3 (P09693 23-182, chain 3 of 3): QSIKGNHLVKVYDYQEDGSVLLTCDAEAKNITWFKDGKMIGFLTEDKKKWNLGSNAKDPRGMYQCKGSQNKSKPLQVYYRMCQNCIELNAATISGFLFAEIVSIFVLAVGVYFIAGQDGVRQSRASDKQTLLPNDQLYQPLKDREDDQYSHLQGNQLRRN

B1: mAb 158 (antibody, V domains shown)
VH: EVQLVESGGGLVQPGRSLRLSCAASGFTFADYTMHWVRQVPGKGLEWVSGISWNSGSVDYADSVKGRFTISRDNAKKTLYLQMNSLRAEDTALYYCAKDSSGYGHYYFYYLDVWGKGTTVTVSS
VL: EIVMTQSPATLSVSPGERATLSCRATQSVSSNLAWYQQKPGQAPRLLIYSTSTRATGIPARFSGSRSGTEFTLTISSLQSEDSAVYYCQQYNNWPHFGQGTRLEIK
On to B1, for which the “CD4 EC50 (nM); CD69/CD25 on human T cells, plate-coated antibody” value (“CD4 EC50 (nM); CD69/CD25” below) turned out to be 6.67 nM and the “CD8 EC50 (nM); CD69/CD25 on human T cells, plate-coated antibody” value (“CD8 EC50 (nM); CD69/CD25” for short) worked out at 6.62 nM.

B2: mAb 160 (antibody, V domains shown)
VH: B1 VH with A24V, A30N, V58I, D59G, K77N, T78S, Y95F, F108Y, L111M, K116R
VL: B1 VL with T26S, S30R, S31K, S50G, T51A, R66G, S83F, Q90L
For the molecule B2, the “CD4 EC50 (nM); CD69/CD25” value stood at 6.95 nM and the “CD8 EC50 (nM); CD69/CD25” value was determined as 8.47 nM.

B3: mAb 162 (antibody, V domains shown)
VH: EVQLVESGGGLVQPGRSLRLSCAASGFTFDNYAMHWVRQAPGKGLEWVSGISWNSGSIGYADSVKGRFTISRDNAKNSLYLELNSLRAEDTALYYCAKDSSGYGYYYNYYMDVWGKGTTVTVSS
VL: B1 VL with T26S, S30R, S50G, T51A, R61K, R66G, S83F, Q90Y, N92Y
On to B3, for which the “CD4 EC50 (nM); CD69/CD25” value amounted to 12.6 nM and the “CD8 EC50 (nM); CD69/CD25” value turned out to be 12.7 nM.

B4: mAb 173 (antibody, V domains shown)
VH: B1 VH with A30D, G50D, D59G, K77N, T78S, A97V, Y107F, F108H, L111M
VL: DIQMTQSPSSLSASVGDRVTITCRASQSISNYLNWYQVKPGKAPKVLIYAASSLQSGVPSRFSGSGSGTDFTLTISSLQPEDFVSYYCHQSYNTPITFGQGTRLEIK
As to B4, the “CD4 EC50 (nM); CD69/CD25” value was 12.5 nM and the “CD8 EC50 (nM); CD69/CD25” value stood at 12.3 nM.

B5: mAb 161 (antibody, V domains shown)
VH: B1 VH with F27I, V40A, V58I, S85R
VL: B1 VL with T26S, S31N
On to B5, for which the “CD4 EC50 (nM); CD69/CD25” value was determined as 6.76 nM and the “CD8 EC50 (nM); CD69/CD25” value was 7.89 nM.

B6: mAb 159 (antibody, V domains shown)
VH: B1 VH with A30N, D31G, D59G, K77N, T78S, Y80F, F108Y, L111M
VL: B1 VL with T26S, S30R, S31N, S50G, T51A, R66G, S83F, V85L, Q90L
Turning to B6, the “CD4 EC50 (nM); CD69/CD25” value was 12 nM and the “CD8 EC50 (nM); CD69/CD25” value stood at 11.9 nM.

B7: mAb 171 (antibody, V domains shown)
VH: B1 VH with V40A, K43Q, V58I, T69I
VL: B1 VL with T26S
As for B7, the “CD4 EC50 (nM); CD69/CD25” value is 6.86 nM and the “CD8 EC50 (nM); CD69/CD25” value is 6.71 nM.

B8: mAb 174 (antibody, V domains shown)
VH: EVQLVESGGGLVQPGGSLRLSCAASGFTFSSNWMSWVRQAPGKGLEWVANIKQDGSEKYSVDSVKGRFTISRDNAKNSLYLQMNSLRAEDTAVYYCARDRSRNYYWYFDLWGRGTLVTVSS
VL: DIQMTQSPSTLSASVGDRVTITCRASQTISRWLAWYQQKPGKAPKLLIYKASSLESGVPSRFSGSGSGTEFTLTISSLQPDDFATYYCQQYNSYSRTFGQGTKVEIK
In the case of B8, the “CD4 EC50 (nM); CD69/CD25” value came out at 19.5 nM and the “CD8 EC50 (nM); CD69/CD25” value is 19.4 nM.

B9: mAb 175 (antibody, V domains shown)
VH: B8 VH with Q3E, S60Y, Q82K, R100C, R102S, Y104W
VL: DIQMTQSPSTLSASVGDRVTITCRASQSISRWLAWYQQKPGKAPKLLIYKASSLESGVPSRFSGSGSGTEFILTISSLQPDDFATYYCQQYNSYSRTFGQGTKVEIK
As to B9, the “CD4 EC50 (nM); CD69/CD25” value came out at 21.6 nM and the “CD8 EC50 (nM); CD69/CD25” value came to 21.2 nM.

B10: mAb 52 (antibody, V domains shown)
VH: QVQLVQSGAEVKKPGASVKVSCKASGYTFTSHDINWVRQATGQGLEWMGWLNPNSGKTGYAQKFQGRVTMARDTSMYTADMELSSLRFEDTAVYYCARVGHYDMWPGFFSFDYWGQGTLVTVSS
VL: DIQMTQSPSSLSASVGDRIIITCRASQDIRNDLGWYQQKPGKAPKRLIYAASSLQSGVPSRFSGSRSGTEFTLTISSLHPEDFATYYCLQHRSYPYTFGQGTNLEIK
For B10, the “CD4 EC50 (nM); CD69/CD25” value stood at 8.79 nM and the “CD8 EC50 (nM); CD69/CD25” value was determined as 9.48 nM.

B11: mAb 53 (antibody, V domains shown)
VH: QVQLVQSGAEVKKPGASVKVSCKASGYTFTSYDINWVRQATGQGLEWMGWMNPKSGKTGYAQKFQGRITMTRNTPISTVYMDLSSLRSEDTAVYYCAREGHYDFWTGYYSFDYWGQGTLVTVSS
VL: B10 VL with I19V, I20T, D28G, K39T, R66G, H79Q, R92Y, N103K
Consider B11, for which the “CD4 EC50 (nM); CD69/CD25” value came to 18.3 nM and the “CD8 EC50 (nM); CD69/CD25” value was determined as 18.3 nM.

B12: mAb 170 (antibody, V domains shown)
VH: B3 VH with Q13R, N31D, A33T, E82Q, L83M, A97S, Y107L, Y110S, M111L
VL: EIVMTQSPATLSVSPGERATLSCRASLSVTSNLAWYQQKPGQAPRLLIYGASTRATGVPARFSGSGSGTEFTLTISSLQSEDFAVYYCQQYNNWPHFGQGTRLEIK
Regarding B12, the “CD4 EC50 (nM); CD69/CD25” value is 14.6 nM and the “CD8 EC50 (nM); CD69/CD25” value was found to be 15.1 nM.

B13: mAb 167 (antibody, V domains shown)
VH: B3 VH with Q3H, N31D, S57T, L83M, Y105H, N108H, M111I, K116T
VL: EIVMTQSPATLSVSPGGRATLSCRASQSVGSNLAWYQQKPGQAPRLLIYDASTRATGIPARFRGSGSGTEFTLTISGLQSEDFAVYYCQLYYNWPHFGQGTRLEIK
For the molecule B13, the “CD4 EC50 (nM); CD69/CD25” value amounted to 6.3 nM and the “CD8 EC50 (nM); CD69/CD25” value turned out to be 6.36 nM.

B14: mAb 172 (antibody, V domains shown)
V domain 1: EVQLVESGGGLVQPGRSLRLSCTTSGFTFDDYTMHWVRQVPGKGLEWVSDISWNSGSVGYADSVKGRFTISRDNAKNSLYLQMNSLRAEDTALYYCVKDSSGYGHYFHYYMDVWGKGTTVTVSS
V domain 2: B14 V domain 1
In the case of B14, the “CD4 EC50 (nM); CD69/CD25” value worked out at 23.2 nM and the “CD8 EC50 (nM); CD69/CD25” value stood at 22.9 nM.

B15: mAb 155 (antibody, V domains shown)
VH: EVQLVESGGGLVKTGGSLRLSCVASGFSFKKAWMNWVRQAPGKGLEWVGRIKRNTDGGTADYAAPVKGRFTLSRDDSKKTLFLQMNSLKTEDTAVYYCTTLDSSSYYVGYYYMDVWGKGTTVTVSS
VL: DIQMTQSPSSVSASVGDRVIITCRASQDINNWLAWYQQKPGKAPKLLIYTASSLQSGVPSRFSGSGSGTDFTLTIGSLQPEDFATYYCQQAHSLPISFGQGTRLDIK
As for B15, the “CD4 EC50 (nM); CD69/CD25” value amounted to 6.25 nM and the “CD8 EC50 (nM); CD69/CD25” value was found to be 6.29 nM.

B16: mAb 165 (antibody, V domains shown)
VH: B15 VH with K79R, F82Y, Y106R
VL: B15 VL with A43V, S97T, D105E
In the case of B16, the “CD4 EC50 (nM); CD69/CD25” value amounted to 6.48 nM and the “CD8 EC50 (nM); CD69/CD25” value was determined as 6.57 nM.

B17: mAb 157 (antibody, V domains shown)
VH: B15 VH with N54T, T55A, T59A, A60T, K79N, F82Y, Y106W
VL: B15 VL with Q3H, S7A, I20T, I21F, G76S, S97T, D105G
Regarding B17, the “CD4 EC50 (nM); CD69/CD25” value was found to be 6.42 nM and the “CD8 EC50 (nM); CD69/CD25” value came to 6.57 nM.

B18: mAb 169 (antibody, V domains shown)
VH: B15 VH
VL: B15 VL with T72I, S97T, D105E
Turning to B18, the “CD4 EC50 (nM); CD69/CD25” value turned out to be 6.49 nM and the “CD8 EC50 (nM); CD69/CD25” value worked out at 6.67 nM.

B19: mAb 166 (antibody, V domains shown)
VH: B15 VH with K43R, A60T, K79N, T80M, F82Y, Y106L
VL: B15 VL with I20T, G76S, Y87F, S97T, D105E, K107T
B19: the “CD4 EC50 (nM); CD69/CD25” value is 10.5 nM and the “CD8 EC50 (nM); CD69/CD25” value came out at 10.6 nM.

B20: mAb 163 (antibody, V domains shown)
VH: B15 VH with A40V
VL: B15 VL with S97T, D105E
For the molecule B20, the “CD4 EC50 (nM); CD69/CD25” value was 6.3 nM and the “CD8 EC50 (nM); CD69/CD25” value amounted to 6.99 nM.

B21: mAb 164 (antibody, V domains shown)
VH: B15 VH
VL: B15 VL with I20T, N30K, S97T, D105E
Take B21: the “CD4 EC50 (nM); CD69/CD25” value was 6.84 nM and the “CD8 EC50 (nM); CD69/CD25” value came to 6.62 nM.

B22: mAb 156 (antibody, V domains shown)
VH: B15 VH
VL: B15 VL with P40A, S97T, D105E
B22: the “CD4 EC50 (nM); CD69/CD25” value worked out at 6.25 nM and the “CD8 EC50 (nM); CD69/CD25” value was found to be 6.25 nM.
